Source: patent publication US20060094649A1

Columns and labels:
Settings in all cases: remark: other sources report otherwise
[1] = molecular target: HLA-A*3101 (human); test: competition vs 125I probe, purified HLA
[2] = molecular target: HLA-A*0301 (human); test: competition vs 125I probe, purified HLA
[3] = molecular target: HLA-A*1101 (human); test: competition vs 125I probe, purified HLA
[4] = molecular target: HLA-A*6801 (human); test: competition vs 125I probe, purified HLA
[5] = molecular target: HLA-A*1101 (human); test: competitive inhibition of 125I-A3con binding to purified HLA
[6] = molecular target: HLA-B*4002 (human); test: competition with radiolabeled probe peptide, purified HLA
[7] = molecular target: HLA-A*3301 (human); test: competition vs 125I probe, purified HLA
[8] = molecular target: HLA-B*0702 (human); test: inhibition of 125I-[..] probe, purified HLA
[9] = molecular target: HLA-A*3101 (human); test: competitive inhibition of 125I-A3con binding to purified HLA
[10] = molecular target: HLA-B*3501 (human); test: inhibition of 125I-B35con2 probe, purified HLA
[11] = molecular target: HLA-B*5301 (human); test: competition vs 125I probe, purified HLA
[12] = molecular target: HLA-A*0301 (human); test: competitive inhibition of 125I-A3con binding to purified HLA
[13] = molecular target: HLA-B*5401 (human); test: competition vs 125I probe, purified HLA

B1: MAGE2.277 (peptide)
peptide: ALIETSYVK
B1 was tested, and the IC50 [1] was 900 nM.

B2: MAGE2.71 (peptide)
peptide: FSTTINYTLWR
B2 showed an IC50 [2] of 1000 nM.

B3: MAGE2/3.116 (8-mer) (peptide)
peptide: LVHFLLLK
Work on B3 yielded an IC50 [3] of 40 nM and an IC50 [4] of 400 nM.

B4: p53.240 (10-mer) (peptide)
peptide: SSCMGGMNRR
B4 gave an IC50 [3] of 70 nM.

B5: p53.375.V2 (peptide)
peptide: SVSRHKKLMFK
Work on B5 yielded an IC50 [2] of 33 nM.

B6: p53.273 (8-mer) (peptide)
peptide: RVCACPGR
In the case of B6, the IC50 [2] is reported as 31 nM.

B7: MAGE3.138.V2R9 (peptide)
peptide: YVFPVIFSR
With B7 the IC50 [1] was 6 nM and the IC50 [2] was 36 nM.

B8: p53.101.K10 … (peptide)
peptide: KTYQGSYGFK
B8 gave an IC50 [5] of 14 nM.

B9: … (peptide)
peptide: GERLPQPPICTI
For B9, the IC50 [6] was 9.5 nM.

B10: MAGE2.69.K9 (peptide)
peptide: SSFSTTINK
B10 showed an IC50 [3] of 3 nM.

B11: MAGE2/3.116 (9-mer) (peptide)
peptide: LVHFLLLKY
With B11 the IC50 [4] was 8000 nM.

B12: p53.376.V2R11 (peptide)
peptide: SVSRHKKLMFR
B12 showed an IC50 [4] of 500 nM.

B13: p53.101.K10 (peptide)
peptide: KTYQGSYGFK
In the case of B13, the IC50 [3] is reported as 14 nM.

B14: MAGE2.226 (peptide)
peptide: SMLEVFEGR
With B14 the IC50 [7] was 9 nM.

B15: MAGE3.138.V2 (peptide)
peptide: YVFPVIFSK
Binder B15 has an IC50 [3] of 3 nM.

B16: MAGE3.77.I8 YPLWSQSI (peptide)
peptide: YPLWSQSI
For B16, the IC50 [8] was 60 nM.

B17: p53.124 (peptide)
peptide: CTYSPALNK
B17 gave an IC50 [1] of 1500 nM.

B18: p53.154.V2 (peptide)
peptide: GVRVRAMAIYK
For B18, the IC50 [2] was 58 nM.

B19: MAGE2.69.K9 … (peptide)
peptide: SSFSTTINK
Work on B19 yielded an IC50 [5] of 3 nM.

B20: p53.101.V2 (peptide)
peptide: KVYQGSYGFR
For B20, the IC50 [1] was 72 nM, the IC50 [3] was 62 nM and the IC50 [4] was 40 nM. It also gave an IC50 [2] of 38 nM.

B21: p53.154 (peptide)
peptide: GTRVRAMAIYK
With B21 the IC50 [2] was 10 nM.

B22: p53.101.V2K10 (peptide)
peptide: KVYQGSYGFK
Binder B22 has an IC50 [3] of 9.2 nM, an IC50 [4] of 38 nM and an IC50 [2] of 33 nM.

B23: p53.124 … (peptide)
peptide: CTYSPALNK
B23 showed an IC50 [9] of 1500 nM.

B24: p53.84 APAPAPSW (peptide)
peptide: APAPAPSW
B24 was tested, and the IC50 [10] was 32.7 nM.

B25: Her2/neu.921I8 (peptide)
peptide: KPYDGIPI
In the case of B25, the IC50 [11] is reported as 51.7 nM.

B26: MAGE3.138.V2 … (peptide)
peptide: YVFPVIFSK
B26 showed an IC50 [5] of 3 nM.

B27: p53.154 … (peptide)
peptide: GTRVRAMAIYK
B27 was tested, and the IC50 [12] was 10 nM.

B28: p53.240 (9-mer) (peptide)
peptide: SSCMGGMNR
B28 gave an IC50 [3] of 4.3 nM and an IC50 [2] of 550 nM.

B29: p53.273 RVCACPGR (peptide)
peptide: RVCACPGR
With B29 the IC50 [12] was 31 nM.

B30: CEA.13 (peptide)
peptide: IPWQRLLLTA
For B30, the IC50 [13] was 3.2 nM.

B31: p53.156.R9 (peptide)
peptide: RVRAMAIYR
B31 gave an IC50 [1] of 9 nM.

B32: p53.132 (peptide)
peptide: KMFCQLAK
B32 gave an IC50 [3] of 17 nM, an IC50 [4] of 727 nM and an IC50 [2] of 29 nM.

B33: MAGE3.138 (peptide)
peptide: YFFPVIFSK
B33 gave an IC50 [2] of 5000 nM.

B34: MAGE3.189 (peptide)
peptide: LLGDNQIMPK
With B34 the IC50 [2] was 500 nM.

B35: MAGE2.73.V2K9 (peptide)
peptide: TVINYTLWK
Binder B35 has an IC50 [1] of 9000 nM.

B36: p53.156 (peptide)
peptide: RVRAMAIYK
B36 showed an IC50 [1] of 5 nM.
